We go through 2 substances from paper PMC4831045.

Assay [1] deals with cNTnC N-terminal domain (Homo sapiens) (UniProt P63316). To be noted: cited from earlier work.
Assay [2] addresses cTnC(C35S)-i9: cardiac troponin C (C35S) with the levosimendan analog i9 covalently bound to C84 (UniProt P63316). The assay is described as follows: NMR titration; 19F NMR; 530 μM Ca2+-saturated cTnC(C35S)-i9 in NMR buffer (100 mM KCl, 10 mM imidazole, 2 mM CaCl2, pH 6.9), 30 °C, titrated with switch-cTnI (144–163) 0 to 1,540 μM; area under the F4′ signal of i9 fit with one-to-one stoichiometry (xcrvfit).

Sequence of switch-cTnI 144-163 (P19429 144-163): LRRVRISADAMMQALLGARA

Broadly, the Kd is the constant that tells how readily two partners part at equilibrium. With “switch-cTnI 144-163 (from UniProt P19429)”, the equilibrium dissociation constant (Kd) in assay [1] was 26 µM.
With “switch-cTnI (residues 144–163) (peptide)”, the Kd in assay [2] stood at 74 µM.
